In the RNAGym collection of RNA variant scans (doi:10.7554/elife.90254) one finds self-cleavage data, which are given here for 167 variants.

First the molecules themselves.
B1: LINE1-full (parent)
chain: UACGUAGGUGGUUUUCCCCUGAUAGUGCUAAGGGGGCCUGGAAGUUUGGACUGGGCAGAGCUCAACACAGCGUGGCAAAGUGGCUGUGGCUAGACUGCCUCUCUGGAUUCCUCGUCACUCAGCAGGGCAUCUCUGAGAGAAAUGCC

The variants in the data set derive from B1. Briefly: self-cleavage, relative activity (ratio to wild type); higher = more cleavage; in vitro, sequencing; the parent is a self-cleaving ribozyme.
Regarding C16U U143A, the self-cleavage came to 0.86.

C16U U87A: the self-cleavage came to 0.05. For U15C A140U the value was 1.61. As to U15A U45G, the self-cleavage worked out at 0.73. With U15A G114U, the self-cleavage was 0.97. Turning to U15C G70A, the self-cleavage was determined as 0.33. The value for U14G C66U was 0.06. On to U15C G127A, for which the self-cleavage is 1.05.

With U15C G127U, the self-cleavage stood at 1.23.

Take U14C G105A: the self-cleavage was determined as 1.38. Consider U14C G105U, for which the self-cleavage came to 1.11. With U15A A107G, the self-cleavage was found to be 0.81. Consider U15A U26C, for which the self-cleavage came to 0.86.

As for C16U A129G, the self-cleavage came to 1.25. As to C16U A129U, the self-cleavage stood at 1.36.

As for C17U G72A, the self-cleavage turned out to be 1.05.

Regarding U15A U29C, the self-cleavage was 2.9. The value for U15C U45G was 1.2; that for U15C U45C was 1.55.

For the variant U15C U45A, the self-cleavage is 1.49. As for U15A U112A, the self-cleavage stood at 1.53. In the case of U15A U112C, the self-cleavage turned out to be 1.51. For the variant C17U A94G, the self-cleavage amounted to 0.31. For C17U A94U the value was 0.17; for U15A A69U, 0.05; for U15A U46G, 0.85. Regarding U14G A107G, the self-cleavage was 1.28. Turning to U14C U100G, the self-cleavage is 1.38.

As to U14C U100A, the self-cleavage is 0.9.

With U14C U100C, the self-cleavage was found to be 1.55. The value for C17A U132A was 1.17. Take U15C A69U: the self-cleavage stood at 0.09. The value for U14G U102G was 0.66; that for U14G A136G was 1.16; that for C16U A124U was 0.88.

With U14C U46C, the self-cleavage turned out to be 1.3. Regarding U14C U46A, the self-cleavage came out at 1.4.

U15A U130C: the self-cleavage was 0.67. Take C16A C38U: the self-cleavage came to 1.45.

As to U14G C18A, the self-cleavage amounted to 1.09. As to U15C C95U, the self-cleavage was 0.28. With U15C G32C, the self-cleavage was 1.16. For U15C G32A the value was 0.93. For U15A A94U the value was 0.25. For U15A A94G the value was 0.19; for U15C G44A, 1.41. Turning to U15C A92U, the self-cleavage came to 0.79. The value for U15A A121G was 1.15; that for U15A A24G was 0.49.

For U15A A24U, the self-cleavage came to 1.12. Take U15C U39G: the self-cleavage amounted to 1.6. The value for U15C U39A was 1.56. For C16U A140G the value was 0.99.

For C16U U108A, the self-cleavage amounted to 1.14. C16U U119A: the self-cleavage stood at 1.17. As for U15C G137U, the self-cleavage turned out to be 1.26. Consider U15C U85C, for which the self-cleavage is 0.34. For the variant U14C U104C, the self-cleavage amounted to 1.51. For U15A A79G, the self-cleavage worked out at 0. On to U15A A129G, for which the self-cleavage was determined as 0.65. U15A U87G: the self-cleavage amounted to 0.2. With U15A U119C, the self-cleavage was 0.19. Take U15C U52A: the self-cleavage was found to be 1.35. The value for U15C U52C was 1.14; that for U15C C61U was 0.05; that for C17A A59U was 0.69. The value for U14C U102C was 1.09; that for U15C C99U was 0.55; that for C17U U52G was 1.41.

As to U14G U85C, the self-cleavage was found to be 0.92. Regarding U15A G32A, the self-cleavage came to 0.66. U15A G53U: the self-cleavage was determined as 0.72.

As for C16U U132A, the self-cleavage stood at 1.41. With U15G C118U, the self-cleavage came out at 0.97.

Turning to C17G A59U, the self-cleavage amounted to 0.55. Take U15G G114A: the self-cleavage was 0.87.

As to U14C G127U, the self-cleavage was 1.73. Take U14C G127A: the self-cleavage was 1. On to U14G A79G, for which the self-cleavage stood at 0.42. Turning to C17U U81A, the self-cleavage was 1.53.

U14C G83A: the self-cleavage came out at 1.07. Consider U14G U96C, for which the self-cleavage is 0.

In the case of C17U C131A, the self-cleavage is 1.58. With C17U A140G, the self-cleavage worked out at 1.02.

On to U15A U115C, for which the self-cleavage is 1.09. For U15A A31G, the self-cleavage came to 0.55.

Take U15A A31U: the self-cleavage was determined as 1.05. As to U15C G34C, the self-cleavage was found to be 1.59.

Regarding U15G G44U, the self-cleavage came to 0.96. The value for C17G U115C was 0.84.

For U15G U115C, the self-cleavage amounted to 0.84. As for U15A U91C, the self-cleavage came to 0.44. Take C17A G70U: the self-cleavage was 0.13. For C16U U100C, the self-cleavage was determined as 1.02.

Consider C16A A141G, for which the self-cleavage stood at 1.35. In the case of C17U A59U, the self-cleavage amounted to 0.51. The value for U15G G144A was 0.82. U14C U96A: the self-cleavage was found to be 0.13.

Regarding C16U G32A, the self-cleavage came to 1. U14C U29C: the self-cleavage amounted to 1.4. As to U15G, the self-cleavage came out at 1.06. Take U15A: the self-cleavage turned out to be 0.96. For U15C the value was 1.42; for U15A G33A, 0.98; for C16U A79U, 1.54. C16U A79G: the self-cleavage was 0.9.

Take U14G A57G: the self-cleavage is 2.19. For the variant U15C C128U, the self-cleavage stood at 1.1. For U14G C38G the value was 1.12; for U15A A78G, 0.99. With U15A C101G, the self-cleavage stood at 0.84. Turning to U15A U100C, the self-cleavage was found to be 0.91. The value for C17U U23G was 1.11; that for C17U U23C was 0.68; that for U14C U47C was 1.56. With U14C U47G, the self-cleavage turned out to be 1.4. The value for C16A A121U was 1.97; that for U15C A129G was 1.54; that for U15C U115G was 1.07.

For the variant U15C U115A, the self-cleavage amounted to 1.59. U15C G33A: the self-cleavage turned out to be 1.05. C16A A22U: the self-cleavage stood at 1.21. Take U15C C51A: the self-cleavage came to 1.37.

As for U15C A94U, the self-cleavage turned out to be 0.67.

For U15C G35U, the self-cleavage was found to be 1.55.

For U15C G35A, the self-cleavage was found to be 1.41.

For the variant U15C U119C, the self-cleavage worked out at 1.75.

In the case of C17A U134C, the self-cleavage was 1.11. Regarding U15C U100C, the self-cleavage worked out at 1.81. For C17U A138C, the self-cleavage came to 1.12.

Regarding C16A A129U, the self-cleavage came out at 1.15. The value for U15C G125U was 0.82. For the variant U15C G125A, the self-cleavage worked out at 0.87. The value for U14G U47C was 1.02. As for C17U A30G, the self-cleavage turned out to be 1.44. On to U15A U52G, for which the self-cleavage came to 1.23.

U15A U52C: the self-cleavage is 0.9. As for U15C G144A, the self-cleavage was 1.04. U15A G40A: the self-cleavage was determined as 1.24. Turning to U14C G74A, the self-cleavage stood at 0.96. In the case of U15C U91C, the self-cleavage worked out at 0.77. As to U15C U91A, the self-cleavage came to 0.81. In the case of U15C A142C, the self-cleavage is 1.8. For U15C A142G the value was 1.41. Take U15C C28U: the self-cleavage is 2.35.

On to U14C G97A, for which the self-cleavage is 0.09.

Regarding U15C C98U, the self-cleavage is 0.33.

Regarding U15C A65U, the self-cleavage came to 0.2. Turning to U15C U109A, the self-cleavage amounted to 1.41. For U15C U109C the value was 1.43; for U15C U109G, 0.84; for U14G U115C, 0.79.

On to U14G G36U, for which the self-cleavage amounted to 1.51. Regarding U14C G60U, the self-cleavage is 0.04.

As to C16U U62C, the self-cleavage is 0.09. The value for U15A U85C was 0.03; that for U15C A141U was 1.58; that for U15A G135A was 0.87. Consider U14C G139U, for which the self-cleavage amounted to 1.63.

Take U15A A30G: the self-cleavage was found to be 1.16. Regarding C16U A141G, the self-cleavage stood at 1.13. The value for U15A U134C was 1.19; that for C16A A117G was 1.01. Regarding U15A G21A, the self-cleavage was 1.15. In the case of U15C C17U, the self-cleavage came to 1.03. The value for U15C C17G was 1.13; that for U14C U26A was 0.95.
